Measurements published in PMC2946932 (PLoS ONE, 2010).

Target: T1, extracellular domain of human BMP receptor type IA (BMPR-IAEC), wild type (human, UniProt P36894)
T1 construct: numbers count on: the mature protein; In the crystal only Pro34-Val118 were traced; also called BMPR-IA WT; BMPR-IA ectodomain; source: expressed as thioredoxin-fusion protein as described [16], purified
Assay: SPR; Biacore 2000, room temperature; biotinylated BMP-2 and Fabs immobilised on a streptavidin-coated CM5 chip; wildtype or mutant BMPR-IAEC as analyte at 1000, 500, 250, 125, 62.5 nM; HBS500 (10 mM HEPES, 500 mM NaCl pH 7.4, 3.4 mM EDTA, 0.005% surfactant P20), 10 µl/min; 1:1 Langmuir model; apparent KD from equilibrium binding and/or kon and koff
Conditions: both partners purified

T1 sequence (P36894 24-152): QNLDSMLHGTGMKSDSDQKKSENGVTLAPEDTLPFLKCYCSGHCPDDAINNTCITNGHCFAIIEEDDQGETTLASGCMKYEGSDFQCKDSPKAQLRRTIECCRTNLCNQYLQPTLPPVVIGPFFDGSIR

B1: Fab AbD1556 (Fab, V domains shown)
VH: QVQLVESGGGLVQPGGSLRLSCAASGFTFSNYTLNWVRQAPGKGLEWVSYTSSSGSLTGYADSVKGRFTISRDNSKNTLYLQMNSLRAEDTAVYYCARERWHVRGYFDHWGQGTLVTVSS
VL: DIELTQPPSVSVAPGQTARISCSGDSLGSKYVIWYQQKPGQAPVLVIYDDSNRPSGIPERFSGSNSGNTATLTISGTQAEDEADYYCSTFTMSGNGTVFGGGTKLTVL
notes: heavy chain of Fab AbD1556 (Gln1 to Phe224, then the Strep-Tag); light chain of Fab AbD1556 (Asp1 to Ala213); Human Fab of the HuCal library; Not biotinylated in the crystal; some residues of PDB 3NH7 are not modelled; source: obtained from AbD-Serotech (Martinsried), recombinant Fab selected from the HuCal phage library
Kd: 20 nM
koff: 0.0017 s⁻¹
kon: 88000 M⁻¹ s⁻¹
